Results on eleven molecules are retold here after US20230046828A1 (OXFORD UNIVERSITY INNOVATION, published 2023).

By Kd is commonly meant the equilibrium constant for the complex coming apart. A high value points to weaker binding. A word on the koff: it is the rate constant with which the complex falls apart. A high value points to a short-lived complex. What is called kon is the second-order rate constant of association. Low readings indicate slower complex formation, high ones faster complex formation.

Assay [1] concerns the target T1, CXCL12 (CXC Ligand 12) (UniProt O62657 22-89).
T1 construct: mature; Untagged in BLI and NMR; CXCL12-His6 was used at 1 µM on the HMGB1 SPOT peptide arrays; also called CXCL12A-c021, wt 1-67, no tag; CXCL12-His6
In words: BLI, biotinylated HMGB1 construct on streptavidin sensor, CXCL12 0-150 µM in solution; kinetics rates derived from interferogram. As to the method:
(§1) Pre-hydrated streptavidin Octet Biosensors (FortéBio 18-5019) were coated with 4 μM solutions of biotinylated HMGB1 proteins in 10 mM HEPES, pH 7.5, 150 mM NaCl (Base buffer-BB) plus, 0.5 mM TCEP (60″ baseline, 60″ binding). Nonspecific binding was minimized by incubation for 3′ in BB+1% BSA+0.05% Tween-20 (Kinetics Buffer, KB) prior to kinetics assays. […] An OctetRed 384 instrument was used for these experiments. Kinetics data were extracted with DataAnalysis 9.0 (FortéBio). Response at equilibrium REq was plotted against concentration in a Michaelis-Menten saturation plot to calculate kD/Bₘₐₓ (saturation plot of concentration against rEq). Kinetic rates (association rate; kₒₙ and dissociation rate; koff) were derived from the direct measurements of each parameter from all the association and dissociation steps in the interferogram, and fitted to a horizontal line (mean) across all measurements. Data from each replicate run were pooled in the same manner to calculate the overall mean. For measuring RAGE binding kinetics to HMGB1, 15 μg/mL RAGE-Fc in PBS+0.1% BSA+0.02% Tween-20 was immobilized on the surface of anti-IgG biosensors (AHC, 18-5060) over 30″ and dipped in serial concentrations of each HMGB1 construct (60″ baseline, 200″ association/dissociation) and fitted in the same manner to derive kinetic parameters.

Assay [2] has as its target T1, CXCL12 (CXC Ligand 12). Kind of assay: BLI, biotinylated HMGB1 construct on streptavidin sensor, CXCL12 0-150 µM in solution; Michaelis-Menten (saturation) Req fit. How it is done:
as §1

For assay [3], the target named is T2, RAGE-Fc chimera protein (BioTechne, 1145-RG) (UniProt Q15109 24-344).
T2 construct: Bought reagent; also called Fc-RAGE; not shown: CH domain of IgG (Fc)
In words: BLI: RAGE-Fc on AHC sensors, HMGB1 construct 0-25 µM in solution; kinetics plot. As to the method: (§2) RAGE-Fc was immobilized in the surface of AHC sensors and dipped in rising concentration of different HMGB1 constructs. Two experiments were run with different concentration ranges: the three columns of graphs in the left, 0 to 22.22 μM HMGB1 over 9 steps; on the right, 0 to 25 μM over 7 steps. Both are color-coded by concentration (top). Colors indicate the specific construct concentration. Each graph corresponds to a single sensor (replicate).
as §1
On the technique in general: BLI is a label-free optical method that tracks binding on a fibre tip over time.

The target of assay [4] is T2, RAGE-Fc chimera protein (BioTechne, …). Kind of assay: BLI: RAGE-Fc on AHC sensors, HMGB1 construct 0-25 µM in solution; saturation fit. How it is done: as §2, §1
Assay [5] has the same target. Kind of assay: hybrid ELISA: HMGB1 construct coated, RAGE-Fc titrated, anti-human IgG-HRP, OD450 normalized to DS-HMGB1; saturation fit. How it is done: (§3) Nonspecific binding was blocked by incubation with 10% BSA in PBS for 2 h, at 20-25° C. A concentration range of RAGE-Fc chimera protein (BioTechne, 1145-RG; 0-640 nM in 1:4 dilutions) was added in 10% BSA/PBS and allowed to bind for 2 h, at 4° C. Bound FC chimera was detected by incubation with Anti-Human IgG HRP (Agilent Dako P021402-2) diluted 1:10000 in 1% BSA/PBS for 2 h, at 20-25° C. Between each of these 3 steps, the plate was washed with 100 μL PBST, three times.
(§4) OD 450 was measured as a readout (FluoStar OMEGA, BMG Labtech) and plotted as a saturation fit against 2× RAGE-Fc concentration (as the chimera is a RAGE dimer).

The target is the same in assay [6]. In words: BLI, RAGE-Fc on AHC sensors. How it is done: as §1
For assay [7] the target is unchanged. Kind of assay: hybrid ELISA: HMGB1 construct coated, RAGE-Fc titrated, anti-human IgG-HRP, OD450 normalized to DS-HMGB1; saturation fit (Kd cell: Invalid fit). As to the method:
as §3, §4
A general note: ELISA stands for enzyme-linked immunosorbent assay.

Changes are numbered by the printed parent chain.

T2 sequence (Q15109 24-344, change not shown): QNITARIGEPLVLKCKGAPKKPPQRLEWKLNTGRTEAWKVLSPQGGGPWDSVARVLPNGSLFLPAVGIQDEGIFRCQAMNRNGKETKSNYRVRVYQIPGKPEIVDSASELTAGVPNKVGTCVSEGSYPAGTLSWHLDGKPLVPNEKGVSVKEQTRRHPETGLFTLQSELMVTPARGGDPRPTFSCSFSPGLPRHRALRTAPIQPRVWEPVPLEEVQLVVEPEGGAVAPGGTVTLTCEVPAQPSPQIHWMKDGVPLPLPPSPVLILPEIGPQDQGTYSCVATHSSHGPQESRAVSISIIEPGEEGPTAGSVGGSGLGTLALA
T1 sequence (P48061 22-89): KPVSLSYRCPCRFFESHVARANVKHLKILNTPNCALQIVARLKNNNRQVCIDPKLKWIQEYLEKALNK

B1: FR-HMGB1 Box B 94-162 (helical-only) (ligand)
chain: PKRPPSAFFLFCSEYRPKIKGEHPGLSIGDVAKKLGEMWNNTAADDKQPYEKKAAKLKEKYEKDIAAYR
modifications: also: biotin or His6 tag in some assays, sequence not given here
notes: also called HMGB1A-c028; not shown: C-terminal Avi / biotinylation tag (BLI, NMR) or His6 tag (reverse peptide array)
As to B1, in assay [1], the affinity, expressed as Kd, was 39 µM; the koff was determined as 0.64 s⁻¹; the kon amounted to 16000 M⁻¹ s⁻¹. Further, the affinity in assay [2], expressed as Kd, was 65 µM.

B2: DS-HMGB1 1-184 (ligand)
chain: GKGDPKKPRGKMSSYAFFVQTCREEHKKKHPDASVNFSEFSKKCSERWKTMSAKEKGKFEDMAKADKARYEREMKTYIPPKGETKKKFKDPNAPKRPPSAFFLFCSEYRPKIKGEHPGLSIGDVAKKLGEMWNNTAADDKQPYEKKAAKLKEKYEKDIAAYRAKGKPDAAKKGVVKAEKSKKKK
modifications: oxidized Box A (disulfide Cys 22-Cys 44)
In the case of B2, in assay [3], the Kd stood at 0.2 µM, the koff came to 0.067 s⁻¹ and the kon worked out at 349000 M⁻¹ s⁻¹. Further, the affinity in assay [4], expressed as Kd, was 0.5 µM. Further, the dissociation constant Kd in assay [5] was 0.0339 µM.

B3: FR-HMGB1 Box B 89-174 (full HMG Box with flanking regions) (ligand)
chain: SMKDPNAPKRPPSAFFLFCSEYRPKIKGEHPGLSIGDVAKKLGEMWNNTAADDKQPYEKKAAKLKEKYEKDIAAYRAKGKPDAAKKGV
modifications: biotinylated in BLI and NMR
notes: also called complete Box B; not shown: C-terminal biotinylation tag
In assay [1], B3 gave a Kd of 7.1 µM, a koff of 0.159 s⁻¹ and a kon of 22000 M⁻¹ s⁻¹. The Kd in assay [2] worked out at 8.19 µM.

B4: dBB12L (double Box B HMGB1 construct with 12-residue linker) (ligand)
chain: KDPNAPKRPPSAFFLFCSEYRPKIKGEHPGLSIGDVAKKLGEMWNNTAADDKQPYEKKAAKLKEKYEKDIAAYRAKGKPDAAKKGVKDPNAPKRPPSAFFLFCSEYRPKIKGEHPGLSIGDVAKKLGEMWNNTAADDKQPYEKKAAKLKEKYEKDIAAYRAKGKPDAAKKGV
notes: also called dBB12L-HMGB1; dBB-HMGB1
In assay [3], B4 had a Kd of 1.3 µM, a koff of 0.206 s⁻¹ and a kon of 164000 M⁻¹ s⁻¹. In assay [4], this molecule returned a Kd of 5.5 µM. Besides, in assay [6], the “fold association rate against FR-HMGB1” value was determined as 3 fold and the “fold dissociation rate against FR-HMGB1” value is 5 fold. The molecule also had a Bmax in assay [7] of 0.06 nM.

B5: FR-HMGB1 Box A 8-78 (helical-only) (ligand)
chain: PRGKMSSYAFFVQTCREEHKKKHPDASVNFSEFSKKCSERWKTMSAKEKGKFEDMAKADKARYEREMKTYI
modifications: biotinylated in BLI
notes: also called minimal Box A 8-78; c027; not shown: biotinylation tag (BLI) or His6 tag (reverse peptide array)
On to B5, for which, in assay [1], the Kd was found to be 18.7 µM, the koff was found to be 0.312 s⁻¹ and the kon turned out to be 17000 M⁻¹ s⁻¹. For the same molecule, the Kd in assay [2] is 17.5 µM.

B6: fully-reduced HMGB1, full-length (1-214) (ligand)
chain: GKGDPKKPRGKMSSYAFFVQTCREEHKKKHPDASVNFSEFSKKCSERWKTMSAKEKGKFEDMAKADKARYEREMKTYIPPKGETKKKFKDPNAPKRPPSAFFLFCSEYRPKIKGEHPGLSIGDVAKKLGEMWNNTAADDKQPYEKKAAKLKEKYEKDIAAYRAKGKPDAAKKGVVKAEKSKKKKEEEEDEEDEEDEEEEEDEEDEDEEEDDDDE
modifications: cysteines reduced (Cys 22, Cys 44, Cys 105)
notes: Tags differ by assay: biotinylated (c011) in BLI with CXCL12, His6-tagged in the reverse peptide array, TEV-cleaved in the RAGE ELISA and BLI; also called FR-HMGB1; FR FL-HMGB1 (c011)
For B6, the dissociation constant Kd in assay [3] turned out to be 0.8 µM; in assay [4], 2.3 µM; in assay [1], 20.9 µM; in assay [2], 15.3 µM; in assay [5], 0.0861 µM. For the same molecule, the koff worked out at 0.041 s⁻¹ in assay [3] and 0.181 s⁻¹ in assay [1]. The kon was 51000 M⁻¹ s⁻¹ in assay [3] and 9000 M⁻¹ s⁻¹ in assay [1].

B7: disulfide HMGB1, full-length (ligand)
chain: B6 chain
modifications: disulfide bond between Cys 22 and Cys 44
notes: also called DS-HMGB1; FL-DS-HMGB1
For the molecule B7, the Kd was 0.2 µM in assay [3], 1.3 µM in assay [4], 0.2 to 1.3 µM in assay [6] and 0.00435 µM in assay [5]. In assay [3], the koff came out at 0.043 s⁻¹. Also, in assay [3], the kon amounted to 215000 M⁻¹ s⁻¹.

B8: non-oxidizable 3S-HMGB1, full-length (1-214) (ligand)
chain: B6 chain with C22S, C44S, C105S
notes: Biotinylated (c022) in BLI with CXCL12, His6-tagged in the reverse peptide array; also called 3S-FL HMGB1 (c022)
As for B8, the Kd in assay [3] came to 0.9 µM; in assay [4] it was 3 µM; in assay [1] it was 11.7 µM; in assay [2], 8.79 µM; in assay [5], 0.00722 µM. Moreover, the koff came out at 0.015 s⁻¹ in assay [3] and 0.145 s⁻¹ in assay [1]. For the same molecule, the values for the on-rate constant (kon) in assay [3] and in assay [1] were 17000 M⁻¹ s⁻¹ and 12000 M⁻¹ s⁻¹, respectively.

B9: DS-HMGB1 1-164 (ligand)
chain: GKGDPKKPRGKMSSYAFFVQTCREEHKKKHPDASVNFSEFSKKCSERWKTMSAKEKGKFEDMAKADKARYEREMKTYIPPKGETKKKFKDPNAPKRPPSAFFLFCSEYRPKIKGEHPGLSIGDVAKKLGEMWNNTAADDKQPYEKKAAKLKEKYEKDIAAYRAK
modifications: oxidized Box A (disulfide Cys 22-Cys 44)
In the case of B9, in assay [3], the Kd stood at 0.9 µM, the koff stood at 0.152 s⁻¹ and the kon was determined as 178000 M⁻¹ s⁻¹. Further, binding in assay [4] was characterised by a dissociation constant (Kd) of 3.1 µM. Also, the Bmax in assay [7] worked out at 0.2 nM.

B10: FR-HMGB1 Box A 1-88 (full HMG Box with flanking regions) (ligand)
chain: GKGDPKKPRGKMSSYAFFVQTCREEHKKKHPDASVNFSEFSKKCSERWKTMSAKEKGKFEDMAKADKARYEREMKTYIPPKGETKKKF
modifications: biotinylated in BLI
notes: also called extended box A 1-88; c037; not shown: biotinylation tag
Regarding B10, in assay [1], the Kd came to 6.1 µM, the koff came out at 0.079 s⁻¹ and the kon was found to be 13000 M⁻¹ s⁻¹. In addition, the Kd in assay [2] turned out to be 12.6 µM.

B11: DS Box A 1-88 (full HMG Box construct with flanking regions) (ligand)
chain: B10 chain
modifications: oxidized (disulfide Cys 22-Cys 44)
notes: also called oxidized Box A alone
In assay [3], B11 yielded a Kd of 15.6 µM, a koff of 0.439 s⁻¹ and a kon of 28000 M⁻¹ s⁻¹. This molecule also yielded a Kd in assay [4] of 53.4 µM. Moreover, the Bmax in assay [7] came to 0.08 nM.
